Assay: soluble on expression in E. coli; label from the status in PepcDB or PDB records

Sequence | soluble on expression in E. coli
MVDVIALGEPLIQFNSFNPGPLRFVNYFEKHVAGSELNFCIAVVRNHLSCSLIARVGNDEFGKNIIEYSRAQGIDTSHIKVDNESFTGIYFIQRGYPIPMKSELVYYRKGSAGSRLSPEDINENYVRNSRLVHSTGITLAISDNAKEAVIKAFELAKSRSLDTNIRPKLWSSLEKAKETILSILKKYDIEVLITDPDDTKILLDVTDPDEAYRKYKELGVKVLLYKLGSKGAIAYKDNVKAFKDAYKVPVEDPTGAGDAMAGTFVSLYLQGKDIEYSLAHGIAASTLVITVRGDNELTPTLEDAERFLNEFKT | soluble
MVEEAERIALISHTAPDGDSVGSSIGFAAMLREKGKSHISVIVPDDIPQYLYCIPGANKVIVHETHPSEAEKALAEADLVFCMDFNAPHRVAGLQSALESSSAPKVLIDHHLYPADIFTLSFSYPPLSSTSELVLRLAKAIGMESYLTQDAATALMTGILTDTGVFSYSSSDPDLYLLVADLMRAGADKDTIIRNTFQQNSEGKMRMQGYVLYEKMTLLPEMGVAYFTLSAEELVRFHNRTGDTDGLANLPLDIAGIEAVCFLREDKNQIKLSFRSTGNYPVNTLAENFGGGGHKNAAGGEFQGSLQEATEKLLKIWKDFNPKNYNNKNQQLEHHHHHH | soluble
MVEIYLFVNPLGGVCLEIEKEIIQLSVNDKKKIQLRFIPLLNMKTINEFLSRQHIPINDIKRRNRIFEDLYSAALDYKAAQLQGRKKGRQLLIGLQKAVAEDGLAYSPELSEELLLAAGGDIDMYRKDRQSDFVKESFQTDQKVAREMGIKQHPTAVVYNYTCENDFGILVENFENMDEIKQLCRVHPHNEPLLNQGDATFEFKRRSNYHFPNGHLHLL | not soluble
MVEKEEAGGGISEEEAAQYDRQIRLWGLEAQKRLRASRVLLVGLKGLGAEIAKNLILAGVKGLTMLDHEQVTPEDPGAQFLIRTGSVGRNRAEASLERAQNLNPMVDVKVDTEDIEKKPESFFTQFDAVCLTCCSRDVIVKVDQICHKNSIKFFTGDVFGYHGYTFANLGEHEFVEEKTKVAKVSQGVEDGPDTKRAKLDSSETTMVKKKVVFCPVKEALEVDWSSEKAKAALKRTTSDYFLLQVLLKFRTDKGRDPSSDTYEEDSELLLQIRNDVLDSLGISPDLLPEDFVRYCFSEMAPVCAVVGGILAQEIVKALSQRDPPHNNFFFFDGMKGNGIVECLGPK | soluble
MVELKVPMFPESVADGTLAQWNKNEGDFVNEGDILAEIETDKVVLEVPATSSGVLKGIKKHAGDTVLSEESLAIIDTAVSTSEPNQQTTNQGNASEATATGQEIDIKAPVFPESVADGTISEWHKKEGEAVSEGDILAEIETDKVVLEVPATSNGVLTKILKTAGETVLSAELIAKITAGGATATTKSEASVGVSQANNDPHLVPSARKAFNASGLDTAANIEGTGKKGRITSEDVKKAVASVNKPQQQTVVINQGARYEKRVKMTRLRQTIANRLVEVQHTNAILTTFNEVDMSAVMELRNKYKDMFVKEHDTKLGFMSFFIKAATEALKKFPDVNASIDGDEIVYHNYFDIGIAVGTDRGLVVPVLRDTDTKSLAELEADVLDKAIKGRDGKLSLEDMQGGTFTITNGGTYGSMLSTPIINSPQSAILGMHNIVERPVVVKGEIKIRPIMYLALSYDHRIIDGGTSVRFLKMIKELIEDPNRILLQV | not soluble
MVENSELRKAGLKVTLPRVKILQMLDSAEQRHMSAEDVYKALMEAGEDVGLATVYRVLTQFEAAGLVVRHNFDGGHAVFELADSGHHDHMVCVDTGEVIEFMDAEIEKRQKEIVRERGFELVDHNLVLYVRKKK | not soluble
MVERKRWSEEFSEWFNEVIEEAGILDKRYPVKGMNVWLPYGLKIMRNIEKFIHEEMERTGHQEVLFPALIPETEFKKEAEHIAGFEGEVFWVTHAGHEPLDVRLVLRPTSETAMYSMFALWIRSHADLPFKVYQIVNVYRYETKHTRPLIRVREISRFFEAHTAHADFEDAERQIKEDLEIFDNLMRKLALAYIISKRPEWDKFPGAFYSLGAEVVMPDGRTLQIGTMHNYKQNFSKAYNILYEKEDGTHDYVHQTTFGMSERLLAAVIAIHGDDRGMVLPPTIAPIQVVIVPIPKKGSEEEVYSYAKGIEEELRDAGIRVYLDLRDKRPGWKFYDWELKGVPVRVEVGPIDVQNSTVVLARRDKLEKITVKREELVDKVRELFEDIMEFLYERANEWLESHIKRVDTLEEAKAVFEDRRGIVEIPWCGEESCGLKMEEELEAKMLGIPYPEEKAKAPEGSKCPVCGREAKFIARFARTY | soluble
MVFCGDDVATGVRDAITYCYRCKGRKVTLSDHEADDDNKPIGDFDYDHEVVVFEIRSRAMEKLRKKRRTGMEGLTYKFVKEYDIENEFCSVRSSFSECCMSDISIEGYMTAKTEFSRSSSLKGLELENQWKMHYVNEIKKGSVIQEFCHCQGWPFGLGRKAALLPPLPKSPAESWSWRKPTRVTPVPFV | soluble
MVFRKSLLKLAVFALGACVAFSNANAAEGKLESIKSKGQLIVGVKNDVPHYALLDQATGEIKGFEVDVAKLLAKSILGDDKKIKLVAVNAKTRGPLLDNGSVDAVIATFTITPERKRIYNFSEPYYQDAIGLLVLKEKKYKSLADMKGANIGVAQAATTKKAIGEAAKKIGIDVKFSEFPDYPSIKAALDAKRVDAFSVDKSILLGYVDDKSEILPDSFEPQSYGIVTKKDDPAFAKYVDDFVKEHKNEIDALAKKWGL | soluble
MVHFIFIALRSMRFMRRLVRNLQYLLLPITSSLLFI | soluble
MVHKSVESPAFSASIEDYALIGDQQSAALVARDGSIDWLCLPRFDSPACFAALLGDEHNGKWRIAPKGAGPCTRRAYRTDSLVLDSEWDTPEGTLRVTDLMPQRDSAPDLVRIVEGLRGRVTVRSAIRLRFDYGLEHHHHHH | soluble
MVHVSGTKVKVVKKKLTKFKRHESDRYRRVAPSWRKPKGIDNRVRRRFRGMRAMPTIGHGSDRRTRFVLPNGYKKVLVQNVKDLDMLLMQSYKYIGEIGHGVSAKSRKGIVERAAQLNIKLTNGNARLRTEESE | not soluble
MVITLPKLKYALNALSPHISEETLNFHYNKHHAGYVNKLNTLIKDTPFAEKSLLDIVKESSGAIFNNAAQIWNHTFYWDSMGPDCGGEPHGEIKEKIQEDFGSFNNFKEQFSNILCGHFGSGWGWLALNNNNKLVILQTHDAGNPIKDNTGIPILTCDIWEHAYYIDYRNDRASYVKAWWNLVNWNFANENLKKAMQKLEHHHHHH | soluble
MVKESGMASLLLENPYYGYRKPKDQLRSSLKNVSDLFVMGGALILESAALLHWLERDGFWPLGMTGISMGGHMASLAVTNWPKPIPLIPCLSWTTASSVFTTGVLSRAVNWRELEKQYATHTVYEEEIISMLEYCGTDSFRMGQEFVKNAPGSFDGLDLTQELLQSGQQVALRSSYSGRPASDQDSSVLMGRRERDGLDQMLSAVSSSAPHLDMLHAKSIACGSGQRQSLQRESLCFMKGVMDECTHIANFSVPVDPSLIIIVQAKEDAYVPRTGVRSLQEIWPGCEVRYLNGGHISAYLFKQGLFRQAIYDAYDRFLHKYSSL | soluble
MVKLKVEDLEMDKIAPLAPEVSLKMAWNIMRDKNLKSIPVADGNNHLLGMLSTSNITATYMDIWDSNILAKSATSLDNILDTLSAEAQNINEERKVFPGKVVVAAMQAESLKEFISEGDIAIAGDRAEIQAELIELKVSLLIVTGGHTPSKEIIELAKKNNITVITTPHDSFTASRLIVQSLPVDYVMTKDNLVAVSTDDLVEDVKVTMSETRYSNYPVIDENNKVVGSIARFHLISTHKKKLEHHHHHHHH | soluble
MVKLRDWQEKLKDKVIEGLRNNFLVALNAPTGSGKTLFSLLVSLEVKPKVLFVVRTHNEFYPIYRDLTKIREKRNITFSFLVGKPSSCLYAEKGAESEDIPCKYCELKGSIVEVKTDDSPLSLVKKLKKDGLQDKFCPYYSLLNSLYKADVIALTYPYFFIDRYREFIDIDLREYMIVIDEAHNLDKVNELEERSLSEITIQMAIKQSKSEESRRILSKLLNQLREVVLPDEKYIKVENVPKLSKEELEILADDYEDIRKDSLKQGKVNKIHIGSILRFFSLLSIGSFIPFSYSKRLVIKNPEISYYLNLLNDNELSIILMSGTLPPREYMEKVWGIKRNMLYLDVEREIQKRVSGSYECYIGVDVTSKYDMRSDNMWKRYADYLLKIYFQAKANVLVVFPSYEIMDRVMSRISLPKYVESEDSSVEDLYSAISANNKVLIGSVGKGKLAEGIELRNNDRSLISDVVIVGIPYPPPDDYLKILAQRVSLKMNRENEEFLFKIPALVTIKQAIGRAIRDVNDKCNVWLLDKRFESLYWKKNLKCLNANKMKL | soluble

Source: the DeepSol protein solubility set
